Experimental data taken from patent US20260116990A1.
pKd: −log10 of the molar value.

Tests used:
[1] = molecular target: His-tagged ectodomain of human transferrin receptor 1 (hTfR1, R121-F760) (human) (UniProt P02786); assay: SPR; binder on protein A chip, hTfR1 as analyte, without hTf
[2] = molecular target: His-tagged ectodomain of human transferrin receptor 1 (hTfR1, R121-F760) (human) (UniProt P02786); assay: SPR; binder on protein A chip, hTfR1 as analyte, in presence of 250 nM hTf
[3] = molecular target: His-tagged ectodomain of human transferrin receptor 1 (hTfR1, R121-F760) (human) (UniProt P02786); assay: SPR Biacore T200 single-cycle; hTfR1 captured on amine-coupled hTf, binder as analyte; 1:1 model

Chain of His-tagged ectodomain of human transferrin receptor 1 (hTfR1, R121-F760) (human) (P02786 other isoform, or with tags, fused parts or gaps limits assumed): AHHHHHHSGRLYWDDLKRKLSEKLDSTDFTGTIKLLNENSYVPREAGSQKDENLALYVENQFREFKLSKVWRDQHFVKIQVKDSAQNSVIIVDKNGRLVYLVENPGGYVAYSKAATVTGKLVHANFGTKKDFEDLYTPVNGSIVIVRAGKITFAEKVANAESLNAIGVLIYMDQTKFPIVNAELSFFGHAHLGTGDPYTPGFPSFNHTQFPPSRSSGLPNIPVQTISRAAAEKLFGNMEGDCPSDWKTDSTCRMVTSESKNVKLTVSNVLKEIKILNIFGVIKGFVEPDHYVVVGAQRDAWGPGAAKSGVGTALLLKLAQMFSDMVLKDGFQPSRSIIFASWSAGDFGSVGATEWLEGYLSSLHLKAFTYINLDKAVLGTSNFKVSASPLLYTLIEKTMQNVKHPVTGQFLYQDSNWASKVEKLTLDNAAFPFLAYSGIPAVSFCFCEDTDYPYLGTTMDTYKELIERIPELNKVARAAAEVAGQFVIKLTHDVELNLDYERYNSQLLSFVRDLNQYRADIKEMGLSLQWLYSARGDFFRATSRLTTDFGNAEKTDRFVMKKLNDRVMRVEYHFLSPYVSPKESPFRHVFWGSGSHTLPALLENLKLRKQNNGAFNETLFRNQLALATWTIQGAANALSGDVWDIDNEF

pKd [1]: 10.00
koff [1]: 8.87e-05 s⁻¹
kon [1]: 882000 M⁻¹ s⁻¹
pKd [2]: 10.08
koff [2]: 5.77e-05 s⁻¹
kon [2]: 692000 M⁻¹ s⁻¹
pKd [3]: 10.70
koff [3]: 5.63e-05 s⁻¹
kon [3]: 2.82e+06 M⁻¹ s⁻¹
Substance: Benchmark antibody 128.1 (BA1), full length human IgG1
